Consider seven molecules from patent US20250049852A1 (SHANGHAI IASO BIOTECHNOLOGY, published 2025).

The target of experiment [1] is T1, Human GPRC5D Protein-VLP (human, UniProt Q9NZD1 1-345).
T1 construct: Bought reagent; also called GPRC5D-VLP; target antigen
Put plainly: phage ELISA, coated antigen, detection anti-M13 then HRP anti-mouse IgG. In general terms: In an ELISA, binding on a coated surface is turned into a signal by an enzyme label.

Experiment [2] has as its target T2, Biotinylated Recombinant human BAFFR Protein (human, UniProt Q96RJ3 7-71, limits assumed, biotinylated).
T2 construct: The label says that it carries a his tag; also called BAFFR-his-Bio
T2 sequence (looked up): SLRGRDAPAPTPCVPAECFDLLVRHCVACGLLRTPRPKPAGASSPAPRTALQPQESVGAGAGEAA
Described as above.

Experiment [3] addresses T3, Biotinylated Human IL-10 Protein (human, UniProt P22301 19-178, biotinylated).
T3 construct: also called IL10-Bio
The experiment is described as above.

Experiment [4] addresses T4, Streptavidin (UniProt P22629 37-163, limits assumed).
T4 construct: also called SA
The experiment is described as above.

In experiment [5] the target is T5, human GPRC5D expressed on the cell surface (CHO-K1-GPRC5D cells; MM1S, U266, 8226, H929 cells) (human, UniProt Q9NZD1 1-345).
T5 construct: whole, on cells; The cell line used is named under assay or readout in each row; also called GPRC5D-positive cells
T5 sequence (Q9NZD1 whole entry): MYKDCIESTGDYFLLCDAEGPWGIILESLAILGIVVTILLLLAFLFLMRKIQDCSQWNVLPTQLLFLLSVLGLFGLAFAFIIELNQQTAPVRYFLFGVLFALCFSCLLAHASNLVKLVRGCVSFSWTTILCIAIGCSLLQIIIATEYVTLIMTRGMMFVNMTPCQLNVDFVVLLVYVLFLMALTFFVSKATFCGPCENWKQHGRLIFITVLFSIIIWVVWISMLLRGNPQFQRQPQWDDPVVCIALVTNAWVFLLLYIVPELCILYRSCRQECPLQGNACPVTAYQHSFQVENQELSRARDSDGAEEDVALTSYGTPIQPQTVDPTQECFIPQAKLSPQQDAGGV
Nature of the experiment: FACS titration (300 nM to 0.00384 nM) on CHO-K1-GPRC5D cells.

Experiment [6] concerns the target T6, murine-derived GPRC5D overexpressed on CHOS cells (CHOS-mouseGPRC5D) (mouse (murine-derived), UniProt Q9JIL6 1-344).
T6 construct: whole, on cells; also called GPRC5D murine-derived positive cell line
T6 sequence (looked up): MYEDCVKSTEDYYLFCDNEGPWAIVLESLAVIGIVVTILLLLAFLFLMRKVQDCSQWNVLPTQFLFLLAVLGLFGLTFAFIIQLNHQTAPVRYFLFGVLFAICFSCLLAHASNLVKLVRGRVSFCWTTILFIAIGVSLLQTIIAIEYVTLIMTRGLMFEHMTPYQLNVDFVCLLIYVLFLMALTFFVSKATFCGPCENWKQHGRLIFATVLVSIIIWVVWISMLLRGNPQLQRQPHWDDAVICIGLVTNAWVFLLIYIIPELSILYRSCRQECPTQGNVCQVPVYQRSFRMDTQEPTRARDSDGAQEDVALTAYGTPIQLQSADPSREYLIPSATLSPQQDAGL
Nature of the experiment: FACS titration on CHOS-mouse-GPRC5D cells (lower graph).

Experiment [7] has as its target T7, monkey-derived GPRC5D overexpressed on CHOS cells (CHOS-macaqueGPRC5D) (macaque (monkey-derived)).
T7 construct: whole, on cells; also called CHOS-macaqaueGPRC5D; GPRC5D monkey-derived positive cell line
Put plainly: FACS titration on CHOS-macaque-GPRC5D cells (upper graph).

The target of experiment [8] is T1, Human GPRC5D Protein-VLP. Nature of the experiment: ELISA, coated antigen, purified IgG-form antibody, detection HRP anti-human IgG.
The target in experiment [9] is T2, Biotinylated Recombinant human BAFFR …. The experiment is described as above.
Experiment [10] deals with T3, Biotinylated Human IL-10 Protein. The experiment is described as above.
The target in experiment [11] is T4, Streptavidin. The experiment is described as above.
The target in experiment [12] is T2, Biotinylated Recombinant human BAFFR …. Put plainly: ELISA, coated antigen, detection HRP anti-human IgG.
Experiment [13] deals with T3, Biotinylated Human IL-10 Protein. The description is as above.
The target of experiment [14] is T4, Streptavidin. The description is as above.

T1 sequence (Q9NZD1 whole entry): as the sequence (Q9NZD1 whole entry) above
T3 sequence (P22301 19-178 limits assumed): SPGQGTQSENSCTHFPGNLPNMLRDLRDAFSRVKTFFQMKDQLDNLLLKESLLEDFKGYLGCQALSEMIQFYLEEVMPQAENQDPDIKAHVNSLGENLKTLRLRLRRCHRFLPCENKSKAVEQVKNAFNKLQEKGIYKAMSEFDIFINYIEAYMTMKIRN
T4 sequence (P22629 37-163 limits assumed): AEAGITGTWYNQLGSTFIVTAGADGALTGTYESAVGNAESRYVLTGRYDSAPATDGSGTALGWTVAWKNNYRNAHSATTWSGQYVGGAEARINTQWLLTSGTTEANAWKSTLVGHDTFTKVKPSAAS

B1: clone #18, single domain antibody displayed as monoclonal phage (phage level) (VHH)
VHH: QVQLQQWGAGLLKPSETLSLTCAVYGGSFSGYYWSWIRQPPGKGLEWIGEINHSGSTNYNPSLKSRVTISVDTSKNQFSLKLSSVTAADTAVYYCARARRYGGRTRFDPWGQGTLVTVSS
notes: Tested as a monoclonal phage antibody (M13 display, detected with anti-M13); also called clone number 18
Consider B1, for which the binding result with Human GPRC5D Protein-VLP [1] is listed as “binds”; in [2], “no binding”; in experiment [3], “no binding”; with Streptavidin [4], “no binding”.

B2: Clone 18, antibody in the IgG form (protein level) (antibody, V domains shown)
VH: B1 VHH
notes: Expressed from an IgG expression plasmid in CHOS cells, purified by Protein A 'into the IgG form', detected with anti-human IgG Fc gamma; also called anti-GPRC5D IgG
B2: in experiment [5], the EC50 (commonly the concentration at which the effect is half-maximal) was found to be 1.58 nM. Moreover, the “TOP (MFI)” value in experiment [5] was 3460 MFI. In addition, the EC50 (read off the curve) (as a rule, the concentration at which the effect is half-maximal) in [6] is ~2 nM; in [7] it was ~10 nM. Also, the binding result was “binds” in the experiment with Human GPRC5D Protein-VLP [8], “no binding” in [9], “no binding” in experiment [10] and “no binding” with Streptavidin [11].

B3: clone #41, single domain antibody displayed as monoclonal phage (phage level) (VHH)
VHH: EVQLLESGGGLVQPGGSLRLSCAASGFSFSGYIMGWVRQAPGKGLEWVSSTSSSGTETYYADSVKGRFTISRDNSKNTLYLQMNSLRAEDTAVYYCARYYSKYGRSYHVDSWGQGTLVTVSS
notes: Tested as a monoclonal phage antibody (M13 display, detected with anti-M13); also called clone number 41
With B3, the binding result with Human GPRC5D Protein-VLP [1] is reported as “binds”; in experiment [2] it was “no binding”; in experiment [3], “no binding”; in the experiment with Streptavidin [4], “no binding”.

B4: Clone 41, antibody in the IgG form (protein level) (antibody, V domains shown)
VH: B3 VHH
notes: as for B2
The molecule B4 came in with an EC50 in experiment [5] of 41 nM. The “TOP (MFI)” value in experiment [5] was determined as 3690 MFI. For the same molecule, the binding result was “binds” in experiment [6]; “binds” with Human GPRC5D Protein-VLP [8]; “no binding” in experiment [9]; “no binding” in [10]; “no binding” with Streptavidin [11]. Moreover, the “EC50 (read off the curve)” value in [7] was ~7 nM.

B5: clone #39, single domain antibody displayed as monoclonal phage (phage level) (VHH)
VHH: EVQLLESGGGLVQPGGSLRLSCAASGFIFSSYGMGWVRQAPGKGLEWVSSISSSGDYTYYADSVKGRFTISRDNSKNTLYLQMNSLRAEDTAVYYCARMSFRRYDHWGQGTLVTVSS
notes: Tested as a monoclonal phage antibody (M13 display, detected with anti-M13); also called clone number 39
As to B5, the binding result with Human GPRC5D Protein-VLP [1] is on record as “binds”; in experiment [2], “no binding”; in experiment [3], “no binding”; with Streptavidin [4] it was “no binding”.

B6: Clone 39, antibody in the IgG form (protein level) (antibody, V domains shown)
VH: B5 VHH
notes: as for B2
B6 displayed an EC50 in experiment [5] of 6.93 nM. Further, the “TOP (MFI)” value in [5] amounted to 2800 MFI. Besides, the binding result in experiment [6] was “binds”; in the experiment with Human GPRC5D Protein-VLP [8] it was “binds”; in experiment [9], “no binding”; in experiment [10] it was “no binding”; with Streptavidin [11], “no binding”.

B7: Positive Benchmark1 Ab (GC5B596) (antibody)
scFv: GSQVQLVQSGAEVKKPGASVKVSCKASGYSFTGYTMNWVRQAPGQGLEWMGLINPYNSDTNYAQKLQGRVTMTTDTSTSTAYMELRSLRSDDTAVYYCARVALRVALDYWGQGTLVTVSSGGGGSGGGGSGGGGSDIQMTQSPSSLSASVGDRVTITCKASQNVATHVGWYQQKPGKAPKRLIYSASYRYSGVPSRFSGSGSGTEFTLTISNLQPEDFATYYCQQYNRYPYTFGQGTKLEIKSR
notes: […] variable region from GC5B596 of CN 109715667 A. As positive control antibody it was detected with anti-human IgG, so it carried a human constant part; also called control antibody benchmark 1
With B7, the binding result (in experiment [12]; in experiment [13]; with Streptavidin [14]) was “no binding” in each case.
